One molecule from patent US10456446B2, “Use of human small leucine zipper protein in osteogenesis procedure” (Korea University Research and Business Foundation, priority 2013, dated 2019) can be followed below.

The test system of assay [1] is BMMs (bone marrow macrophages)-derived mature osteoclasts. The assay is described as follows: Osteoclast marker mRNA in osteoclasts derived from bone marrow macrophages of sLZIP TG mice, real-time PCR. The format is cell-based, mouse. Particulars: RANKL 100 ng/mL and M-CSF 30 ng/mL, wild type versus sLZIP TG mice. On the procedure: Real-time PCR was performed in LightCycler 480 using a SYBR Green Master Mix (Roche, Mannheim, Germany). β-actin was used as an internal control group. A target gene expression level rate with respect to β-actin was calculated using CT method. A Ct value is defined as a PCR cycle number at which a fluorescence signal reaches a fixed target threshold. Experiments were technically repeated three times for each experiment.
(§1) When a bone is initially developed during an embryo, cartilage is formed and hardened to a bone according to a so-called ossification (or osteogenesis) process. In order to examine whether sLZIP-mediated osteogenesis is associated with cartilage development, an effect of sLZIP in chondrocyte differentiation was examined. For this purpose, ATDC5 cells were temporarily transfected with sLZIP at different contents (0.1 μg to 0.5 μg). Total RNA was extracted from the cells, and an mRNA expression level of a chondrocyte marker was measured using RT-PCR analysis (FIG. 8A) and real-time PCR (FIG. 8B). GAPDH was used as an internal control group. An experiment was repeated three times. […] Total RNA was extracted from the mature osteoclasts, and an mRNA expression level of an osteoclast marker was measured using real-time PCR (FIG. 8D). […]

The test system of assay [2] is sLZIP TG mouse embryos. The assay is described as follows: Cartilage development, alcian blue staining of sLZIP TG mouse embryos on E12.5. The format is in vivo. Particulars: E12.5, compared with wild type.
Text: In order to generate human sLZIP transgenic (TG) mice, sLZIP genes were cloned into a pCMV-flag expression vector. The sLZIP TG mice were generated by Macrogen, Inc (Seoul, Korea). Transgenic founders were mated with wild type C57BL/6 mice to produce F1 heterozygotes. F1-F4 generations were genetically screened for transgenes at an age of 2 weeks old. The following two primers were used to amplify genomic DNA in order to identify wild type and TG mice: 5′-GGACGATGATGACAAGGACT-3′ (SEQ ID NO: 25) and 5′-GTCAGAGGAGTACATGCTGCT-3′(SEQ ID NO: 26).
as §1

B1: sLZIP: human small leucine-zipper protein, isoform of LZIP, 354 amino acids, no transmembrane domain, GenBank FJ263669, SEQ ID NO: 1 (protein, listed as Homo sapiens)
chain: MELELDAGDQDLLAFLLEESGDLGTAPDEAVRAPLDWALPLSEVPSDWEVDDLLCSLLSPPASLNILSSSNPCLVHHDHTYSLPRETVSMDLESESCRKEGTQMTPQHMEELAEQEIARLVLTDEEKSLLEKEGLILPETLPLTKTEEQILKRVRRKIRNKRSAQESRRKKKVYVGGLESRVLKYTAQNMELQNKVQLLEEQNLSLLDQLRKLQAMVIEISNKTSSSSMYSSDTRGSLPAEHGVLSRQLRALPSEDPYQLELPALQSEVPKDSTHQWLDGSDCVLQAPGNTSCLLHYMPQAPSAEPPLEWPFPDLFSEPLCRGPILPLQANLTRKGGWLPTGSPSVILQDRYSG
Regarding B1, in assay [1], the “osteoclast markers (Oscar, Ctsk, TARP)” value was “no difference”. Moreover, the “cartilage development of leg and tail” value in assay [2] is listed as “no difference”.
